Results as given in patent publication US20150344570A1 (published 2015).
Where two headings read alike, the source gives them in different places.

Experiments:
Assay in all cases: SPR (Biacore), antibody captured, FcgR as analyte
FcgRIIa R [1] = molecular target: T1, FcgRIIa R (human, UniProt P12318 34-217)
T1 construct: extracellular domain; also called FcγRIIa R; FcγRIIa type R
T1 sequence (looked up): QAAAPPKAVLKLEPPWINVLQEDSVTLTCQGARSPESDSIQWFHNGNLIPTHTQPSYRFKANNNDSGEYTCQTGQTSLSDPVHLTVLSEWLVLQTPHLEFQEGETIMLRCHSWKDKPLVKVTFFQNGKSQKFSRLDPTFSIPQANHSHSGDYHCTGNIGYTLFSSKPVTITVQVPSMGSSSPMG
Description: (§1) Then, H240-Hl136 (SEQ ID NO: 97) resulting from introduction of L234Y/L235Y/G236W/H268D/S298A/A327D into H240-Hl033 and H240-Kn133 (SEQ ID NO: 98) resulting from introduction of D270E/K326D/A330K/K334E into H240-Kn033 were constructed according to the method described in Reference Example 1.
(§2) Analysis of interaction between objective antibody and the FcγR was carried out using Biacore T100 (GE Healthcare), Biacore T200, Biacore A100, and Biacore 4000. HBS-EP+ (GE Healthcare) was used as the running buffer, and the measurement temperature was set to 25° C. Chips produced by immobilizing the antigen peptide by the amine coupling method to a Series S sensor Chip CM5 (GE Healthcare), chips produced by allowing preliminarily biotinylated antigen peptides to interact with and immobilize onto a Series S Sensor Chip SA (certified) (GE Healthcare), chips produced by immobilizing Protein L (ACTIGEN, BioVision) to Series S Sencor Chip CM5 (GE Healthcare), or chips produced by immobilizing Protein A/G (Thermo Scientific) to Series S Sencor Chip CM5 (GE Healthcare) were used. Antibodies of interest were captured onto these chips, and allowed to interact to each FcγR diluted with running buffer.

FcgRIIa H [2] = molecular target: T2, FcgRIIa H (human, UniProt P12318 34-217)
T2 construct: extracellular domain; also called FcγRIIa H; FcγRIIa type H
T2 sequence (looked up): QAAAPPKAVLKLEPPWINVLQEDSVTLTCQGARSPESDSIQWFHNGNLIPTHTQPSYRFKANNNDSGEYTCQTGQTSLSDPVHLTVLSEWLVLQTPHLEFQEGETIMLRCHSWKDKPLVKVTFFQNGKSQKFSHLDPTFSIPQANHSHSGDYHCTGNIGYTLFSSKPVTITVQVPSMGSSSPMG
Description: as §1, §2

FcgRIIIa F [3] = molecular target: T3, FcgRIIIa F (human, UniProt P08637 17-208)
T3 construct: extracellular domain; polymorphic site made after J. Clin. Invest; also called FcγRIIIa F
T3 sequence (P08637 17-208): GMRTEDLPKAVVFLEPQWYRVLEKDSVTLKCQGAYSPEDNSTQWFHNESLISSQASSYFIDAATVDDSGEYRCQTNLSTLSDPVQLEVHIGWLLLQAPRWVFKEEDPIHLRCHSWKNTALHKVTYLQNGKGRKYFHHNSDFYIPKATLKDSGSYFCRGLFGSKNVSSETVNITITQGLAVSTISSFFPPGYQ
Description: as §1, §2

FcgRIIIa V [4] = molecular target: T4, FcgRIIIa V (human, UniProt P08637 17-208)
T4 construct: extracellular domain; polymorphic site made after J. Clin. Invest; also called FcγRIIIa V
T4 sequence (P08637 17-208 F176V limits assumed): as the sequence (P08637 17-208) above, with F160V counted along it
Description: as §1, §2

FcgRIa = molecular target: T5, FcgRIa (human, UniProt P12314 16-292)
T5 construct: extracellular domain; also called FcγRIa; FcγRI
T5 sequence (P12314 16-292): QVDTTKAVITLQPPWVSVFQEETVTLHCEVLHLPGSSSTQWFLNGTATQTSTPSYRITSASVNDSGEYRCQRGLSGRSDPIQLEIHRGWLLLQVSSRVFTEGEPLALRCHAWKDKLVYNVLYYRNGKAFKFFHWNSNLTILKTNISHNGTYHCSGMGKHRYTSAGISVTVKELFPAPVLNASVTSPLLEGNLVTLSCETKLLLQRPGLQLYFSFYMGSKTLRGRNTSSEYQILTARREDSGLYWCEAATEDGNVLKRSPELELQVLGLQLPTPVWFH
Description: (§3) H240-Kn113 (SEQ ID NO: 92) resulting from introduction of Y234E and Y235N into H240-Kn072, H240-Kn115 (SEQ ID NO: 93) resulting from introduction of S239M into H240-Kn072, and H240-Kn125 (SEQ ID NO: 94) resulting from introduction of Y235Q and S239M into H240-Kn072 were prepared according to the method described in Reference Example 1. H240-Kn113/H240-Hl076/L73-k0, H240-Kn115/H240-Hl076/L73-k0, and H240-Kn125/H240-Hl076/L73-k0 were prepared by combining H240-Hl076 as an H chain, L73-k0 as the L chain, and H240-Kn113, H240-Kn115, and H240-Kn125 as the other H chain according to the method described in Reference Example 1.
as §2, with “buffer. To regenerate and repeatedly use the chip, the antibodies captured onto the chip were washed off by reacting 10 mM glycine-HCl, pH 1.5.” for “buffer.”

FcgRIIa R [5] = molecular target: T1, FcgRIIa R; remark: listed apart in the source
Description: as §3
as §2, with “buffer. To regenerate and repeatedly use the chip, the antibodies captured onto the chip were washed off by reacting 10 mM glycine-HCl, pH 1.5.” for “buffer.”

FcgRIIa H [6] = molecular target: T2, FcgRIIa H; remark: listed apart in the source
Description: as §3
as §2, with “buffer. To regenerate and repeatedly use the chip, the antibodies captured onto the chip were washed off by reacting 10 mM glycine-HCl, pH 1.5.” for “buffer.”

FcgRIIb = molecular target: T6, FcgRIIb (human, UniProt P31994 43-217)
T6 construct: extracellular domain; also called FcγRIIb; CD32B
T6 sequence (looked up): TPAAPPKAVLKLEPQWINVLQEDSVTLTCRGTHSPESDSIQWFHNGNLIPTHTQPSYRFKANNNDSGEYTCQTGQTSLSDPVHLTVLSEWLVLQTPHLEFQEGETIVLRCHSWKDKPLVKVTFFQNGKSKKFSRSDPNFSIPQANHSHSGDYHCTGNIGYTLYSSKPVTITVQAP
Description: as §3
as §2, with “buffer. To regenerate and repeatedly use the chip, the antibodies captured onto the chip were washed off by reacting 10 mM glycine-HCl, pH 1.5.” for “buffer.”

FcgRIIIa F [7] = molecular target: T3, FcgRIIIa F; remark: listed apart in the source
Description: as §3
as §2, with “buffer. To regenerate and repeatedly use the chip, the antibodies captured onto the chip were washed off by reacting 10 mM glycine-HCl, pH 1.5.” for “buffer.”

FcgRIIIa V [8] = molecular target: T4, FcgRIIIa V; remark: listed apart in the source
Description: as §3
as §2, with “buffer. To regenerate and repeatedly use the chip, the antibodies captured onto the chip were washed off by reacting 10 mM glycine-HCl, pH 1.5.” for “buffer.”

| Binder | Kd (FcgRIIa R [1]) | Kd (FcgRIIa H [2]) | Kd (FcgRIIIa F [3]) | Kd (FcgRIIIa V [4]) | Kd (FcgRIa) | Kd (FcgRIIa R [5]) | Kd (FcgRIIa H [6]) | Kd (FcgRIIb) | Kd (FcgRIIIa F [7]) | Kd (FcgRIIIa V [8]) |
| --- | --- | --- | --- | --- | --- | --- | --- | --- | --- | --- |
| H240-Kn067/H240-Hl136/L73-k0 (antibody, human IgG1, kappa, Called homodimerized: both H chains have L234Y/L235Y/G236W/H268D/S298A/A327D) heavy 1: QDQLVQSGAEVKKPGASVKVSCKASGFNIKDTYIQWVRQAPGQGLEWMGRIDPLRKQTKYREKFEGRVTITADTSTNTAYMELSSLRSEDTAVYYCVRSGREFDYWGQGTLVTVSSASTKGPSVFPLAPSSKSTSGGTAALGCLVKDYFPEPVTVSWNSGALTSGVHTFPAVLQSSGLYSLSSVVTVPSSSLGTQTYICNVNHKPSNTKVDKKVEPKSCDKTHTCPPCPAPEYYWGPSVFLFPPKPKDTLMISRTPEVTCVVVDVSDEDPEVKFNWYVDGVEVHNAKTKPREEQYNATYRVVSVLTVLHQDWLNGKEYKCKVSNKDLPAPIEKTISKAKGQPREPQVCTLPPSRDELTKNQVSLWCLVKGFYPSDIAVEWESNGQPENNYKTTPPVLDSDGSFFLYSKLTVDKSRWQQGNVFSCSVMHEALHNHYTQKSLSLSP heavy 2: QDQLVQSGAEVKKPGASVKVSCKASGFNIKDTYIQWVRQAPGQGLEWMGRIDPLRKQTKYREKFEGRVTITADTSTNTAYMELSSLRSEDTAVYYCVRSGREFDYWGQGTLVTVSSASTKGPSVFPLAPSSKSTSGGTAALGCLVKDYFPEPVTVSWNSGALTSGVHTFPAVLQSSGLYSLSSVVTVPSSSLGTQTYICNVNHKPSNTKVDKKVEPKSCDKTHTCPPCPAPEYYWGPSVFLFPPKPKDTLMISRTPEVTCVVVDVSDEDPEVKFNWYVDGVEVHNAKTKPREEQYNATYRVVSVLTVLHQDWLNGKEYKCKVSNKDLPAPIEKTISKAKGQPREPQVYTLPPSRCELTKNQVSLSCAVKGFYPSDIAVEWESNGQPENNYKTTPPVLDSDGSFFLVSKLTVDKSRWQQGNVFSCSVMHEALHNHYTQKSLSLSP light: DIQMTQSPSSLSASVGDRVTITCRASQDIHKYIAWYQQKPGQAPRLLIQYTSTLQPGVPSRFSGSGSGTDYTFTISSLQPEDIATYYCLQYEQLRTFGGGTKVEIKRTVAAPSVFIFPPSDEQLKSGTASVVCLLNNFYPREAKVQWKVDNALQSGNSQESVTEQDSKDSTYSLSSTLTLSKADYEKHKVYACEVTHQGLSSPVTKSFNRGEC | 950 nM | 2100 nM | 960 nM | 340 nM |  |  |  |  |  |  |
| H240-Kn133/H240-Hl068/L73-k0 (antibody, human IgG1, kappa, Called homodimerized: both H chains have D270E/K326D/A330K/K334E) heavy 1: QDQLVQSGAEVKKPGASVKVSCKASGFNIKDTYIQWVRQAPGQGLEWMGRIDPLRKQTKYREKFEGRVTITADTSTNTAYMELSSLRSEDTAVYYCVRSGREFDYWGQGTLVTVSSASTKGPSVFPLAPSSKSTSGGTAALGCLVKDYFPEPVTVSWNSGALTSGVHTFPAVLQSSGLYSLSSVVTVPSSSLGTQTYICNVNHKPSNTKVDKKVEPKSCDKTHTCPPCPAPELLGGPSVFLFPPKPKDTLMISRTPEVTCVVVDVSHEEPEVKFNWYVDGVEVHNAKTKPREEQYNSTYRVVSVLTVLHQDWLNGKEYKCKVSNDALPKPIEETISKAKGQPREPQVCTLPPSRDELTKNQVSLWCLVKGFYPSDIAVEWESNGQPENNYKTTPPVLDSDGSFFLYSKLTVDKSRWQQGNVFSCSVMHEALHNHYTQKSLSLSP heavy 2: QDQLVQSGAEVKKPGASVKVSCKASGFNIKDTYIQWVRQAPGQGLEWMGRIDPLRKQTKYREKFEGRVTITADTSTNTAYMELSSLRSEDTAVYYCVRSGREFDYWGQGTLVTVSSASTKGPSVFPLAPSSKSTSGGTAALGCLVKDYFPEPVTVSWNSGALTSGVHTFPAVLQSSGLYSLSSVVTVPSSSLGTQTYICNVNHKPSNTKVDKKVEPKSCDKTHTCPPCPAPELLGGPSVFLFPPKPKDTLMISRTPEVTCVVVDVSHEEPEVKFNWYVDGVEVHNAKTKPREEQYNSTYRVVSVLTVLHQDWLNGKEYKCKVSNDALPKPIEETISKAKGQPREPQVYTLPPSRCELTKNQVSLSCAVKGFYPSDIAVEWESNGQPENNYKTTPPVLDSDGSFFLVSKLTVDKSRWQQGNVFSCSVMHEALHNHYTQKSLSLSP light: DIQMTQSPSSLSASVGDRVTITCRASQDIHKYIAWYQQKPGQAPRLLIQYTSTLQPGVPSRFSGSGSGTDYTFTISSLQPEDIATYYCLQYEQLRTFGGGTKVEIKRTVAAPSVFIFPPSDEQLKSGTASVVCLLNNFYPREAKVQWKVDNALQSGNSQESVTEQDSKDSTYSLSSTLTLSKADYEKHKVYACEVTHQGLSSPVTKSFNRGEC | 450 nM | 160 nM | 120 nM | 14 nM |  |  |  |  |  |  |
| H240-Kn125/H240-Hl076/L73-k0 (antibody, human IgG1, kappa, H240-Kn125: Y235Q and S239M introduced into H240-Kn072) heavy 1: QDQLVQSGAEVKKPGASVKVSCKASGFNIKDTYIQWVRQAPGQGLEWMGRIDPLRKQTKYREKFEGRVTITADTSTNTAYMELSSLRSEDTAVYYCVRSGREFDYWGQGTLVTVSSASTKGPSVFPLAPSSKSTSGGTAALGCLVKDYFPEPVTVSWNSGALTSGVHTFPAVLQSSGLYSLSSVVTVPSSSLGTQTYICNVNHKPSNTKVDKKVEPKSCDKTHTCPPCPAPEYQWGPMVFLFPPKPKDTLMISRTPEVTCVVVDVSDEEPEVKFNWYVDGVEVHNAKTKPREEQYNATYRVVSVLTVLHQDWLNGKEYKCKVSNKALPAPIEKTISKAKGQPREPQVCTLPPSRDELTKNQVSLWCLVKGFYPSDIAVEWESNGQPENNYKTTPPVLDSDGSFFLYSKLTVDKSRWQQGNVFSCSVMHEALHNHYTQKSLSLSP heavy 2: QDQLVQSGAEVKKPGASVKVSCKASGFNIKDTYIQWVRQAPGQGLEWMGRIDPLRKQTKYREKFEGRVTITADTSTNTAYMELSSLRSEDTAVYYCVRSGREFDYWGQGTLVTVSSASTKGPSVFPLAPSSKSTSGGTAALGCLVKDYFPEPVTVSWNSGALTSGVHTFPAVLQSSGLYSLSSVVTVPSSSLGTQTYICNVNHKPSNTKVDKKVEPKSCDKTHTCPPCPAPELLGGPSVFLFPPKPKDTLMISRTPEVTCVVVDVSHEEPEVKFNWYVDGVEVHNAKTKPREEQYNSTYRVVSVLTVLHQDWLNGKEYKCKVSNDALPMPIEETISKAKGQPREPQVYTLPPSRCELTKNQVSLSCAVKGFYPSDIAVEWESNGQPENNYKTTPPVLDSDGSFFLVSKLTVDKSRWQQGNVFSCSVMHEALHNHYTQKSLSLSP light: DIQMTQSPSSLSASVGDRVTITCRASQDIHKYIAWYQQKPGQAPRLLIQYTSTLQPGVPSRFSGSGSGTDYTFTISSLQPEDIATYYCLQYEQLRTFGGGTKVEIKRTVAAPSVFIFPPSDEQLKSGTASVVCLLNNFYPREAKVQWKVDNALQSGNSQESVTEQDSKDSTYSLSSTLTLSKADYEKHKVYACEVTHQGLSSPVTKSFNRGEC |  |  |  |  | 0.24 nM | 380 nM | 190 nM | 4200 nM | 1.2 nM | 0.37 nM |
